Values belong to the binder of their own block, whether it stands above or below them.
Experiments:
[1] = target: T1, β2-Microglobulin (Homo sapiens, UniProt P61769); assay: SPR; Biacore T200; β2M immobilised on a CM5 chip to 150 RU; VHH samples after the modification procedure (NHS-Fluo:VHH 0, 1, 5 or 20; 2 h at 4 °C, ultrafiltration) in 2-fold serial dilution, 30 μL/min, HBS-EP+, 25 °C; 1:1 model with drift and RI2
T1 construct: human β2-microglobulin; Amine-coupled to a CM5 chip (150 RU); also called antigen β2M; source: expressed and purified as previously described [27]

[2] = target: T1, β2-Microglobulin; assay: SPR; Biacore T200; β2M immobilised on a CM5 chip to 150 RU; VHH samples 'Origin' (no treatment) in 2-fold serial dilution, 30 μL/min, HBS-EP+, 25 °C; 1:1 model with drift and RI2; settings: both partners purified
[3] = target: T1, β2-Microglobulin; assay: SPR; Biacore T200; β2M immobilised on a CM5 chip to 150 RU; VHH samples after the modification procedure (NHS-Fluo:VHH 0, 1, 5 or 20; 2 h at 4 °C, ultrafiltration) in 2-fold serial dilution, 30 μL/min, HBS-EP+, 25 °C; 1:1 model with drift and RI2; settings: both partners purified
[4] = target: T2, β2-Microglobulin (β2M) (Homo sapiens, UniProt P61769); assay: SPR; Biacore T200; β2M immobilized on a CM5 chip to 150 RU; 2-fold serial diluted VHH at 30 μL/min in HBS-EP+; 25 °C; 1:1 binding model; VHH samples after incubation with NHS-Fluo at molar ratio 0 (negative control), 1, 5 or 20 and ultrafiltration; settings: both partners purified
T2 construct: β2-microglobulin, human (the title says anti-human β2-microglobulin VHHs); Probably the mature protein without the signal peptide (surmised); also called antigen β2M; human β2-microglobulin; source: expressed and purified as previously described [27]

[5] = target: T1, β2-Microglobulin; assay: SPR; Biacore T200; β2M immobilised on a CM5 chip to 150 RU; VHH samples after the modification procedure (NHS-Fluo:VHH 0, 1, 5 or 20; 2 h at 4 °C, ultrafiltration) in 2-fold serial dilution, 30 μL/min, HBS-EP+, 25 °C; 1:1 model with drift and RI2; settings: both partners purified; remark: listed apart in the source
[6] = target: T1, β2-Microglobulin; assay: SPR; Biacore T200; β2M immobilised on a CM5 chip to 150 RU; VHH samples 'Origin' (no treatment) in 2-fold serial dilution, 30 μL/min, HBS-EP+, 25 °C; 1:1 model with drift and RI2; settings: both partners purified; remark: listed apart in the source
[7] = target: T3, BSA (Bos taurus, UniProt P02769); assay: laser scanning confocal fluorescence imaging of protein-coated beads; β2M or BSA coupled to CNBr-activated Sepharose 4 Fast Flow beads; incubated with labeled NB-1 (10 μg/mL in PBS) 5 min at room temperature; washed five times with PBS; FV1000 microscope; settings: both partners purified
T3 construct: BSA (bovine serum albumin); also called negative control - BSA
T3 sequence (P02769 25-607): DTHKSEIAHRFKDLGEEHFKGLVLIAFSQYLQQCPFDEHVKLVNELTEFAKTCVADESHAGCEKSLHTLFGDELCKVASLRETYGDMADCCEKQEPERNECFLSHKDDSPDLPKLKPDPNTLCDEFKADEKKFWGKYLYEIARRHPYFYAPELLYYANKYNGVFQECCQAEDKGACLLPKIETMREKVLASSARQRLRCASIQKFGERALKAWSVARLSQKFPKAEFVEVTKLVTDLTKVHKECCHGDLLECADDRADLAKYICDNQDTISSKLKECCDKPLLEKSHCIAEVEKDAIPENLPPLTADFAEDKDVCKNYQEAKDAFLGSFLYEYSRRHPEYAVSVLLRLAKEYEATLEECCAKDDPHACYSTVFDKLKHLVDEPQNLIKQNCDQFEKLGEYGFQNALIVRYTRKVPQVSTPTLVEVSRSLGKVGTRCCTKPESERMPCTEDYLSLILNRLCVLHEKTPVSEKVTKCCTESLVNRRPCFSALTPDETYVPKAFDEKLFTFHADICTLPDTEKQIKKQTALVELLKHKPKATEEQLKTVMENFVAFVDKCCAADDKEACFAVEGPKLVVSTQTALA

[8] = target: T2, β2-Microglobulin (β2M); assay: SPR; Biacore T200; β2M immobilized on a CM5 chip to 150 RU; 2-fold serial diluted VHH at 30 μL/min in HBS-EP+; 25 °C; 1:1 binding model; VHH sample 'origin' without modification or other treatment; settings: both partners purified

Kd [1]: 26200 nM
koff [1]: 0.00315 s⁻¹
kon [1]: 120 M⁻¹ s⁻¹
B1: NB-4 modified with 1 time of NHS-Fluo (VHH)
VHH: QVQLVESGGGLVEPGGSVRLSCAVSGNIVSISTVGWYRQAPGKQRELVASITGGGTTNYGDFVNGRFSIYRDNAPNRVYLHMSTLRPDDTAVYYCNARAGGSGSGSDPYDYWGVGTQVTVSS

Kd [2]: 289 nM
koff [2]: 0.0028 s⁻¹
kon [2]: 9700 M⁻¹ s⁻¹
Kd [3]: 536 nM
koff [3]: 0.003 s⁻¹
kon [3]: 5600 M⁻¹ s⁻¹
B2: NB-4 (VHH)
VHH: B1 VHH
notes: VHH domain of NB-4; flexible (G4S)4 linker between the VHH domain and the His6 tag, written out from '(G4S)4'; VHH-(G4S)4-His6; Template of the homology model: PDB 5IMK (GMQE 0.85). 'Origin' = no treatment; '0' = negative control; also called NB-4-Origin; NB-4-0; source: E. coli SHuffle T7, purified (HisTrap HP)

fold increase of KD against the sample without any treatment [4]: ~2 fold
B3: NB-4 (anti-β2M VHH, unmodified), VHH-(G4S)4-His6 (VHH)
VHH: B1 VHH
notes: VHH domain of NB-4; flexible (G4S)4 linker between the VHH domain and the 6xHis-tag, written out from the printed formula; Homology model built on template PDB 5IMK (GMQE 0.85), a template only; also called NB-4-origin; NB-4-0; source: E. coli SHuffle T7, purified (HisTrap HP)

Kd [4]: 14100 nM
B5: NB-3 modified by a 20 fold amount of NHS-Fluo (VHH)
VHH: QVQLVESGGGLVQPGGSLRLSCAASGFSLDYYAIGWFRQAPGKEREGVSCISSSDDSTYYAGSVKGRFKISRDNAKSTVYLQMNSLKPEDSAVYYCAALHSGNYYYTPSYICDAEMDYWGKGTLVTVSS
notes: VHH domain as in m6 (NB-3); flexible (G4S)4 linker between the VHH domain and the 6xHis-tag, written out from the printed formula; Heterogeneous product of random amino modification; also called modified NB-3; NB-3 20:1; source: E. coli SHuffle T7, purified (HisTrap HP), then modified with NHS-Fluo (2 h, 4 °C), ultrafiltration

Kd [5]: 6620 nM
koff [5]: 0.00369 s⁻¹
kon [5]: 558 M⁻¹ s⁻¹
B7: NB-3 modified with 5 times of NHS-Fluo (VHH)
VHH: B5 VHH
notes: as the VHH domain of Dm10; flexible (G4S)4 linker between the VHH domain and the His6 tag, written out from '(G4S)4'; A mixture of isomers with different numbers and places of fluorescein; also called NB-3-5; source: E. coli SHuffle T7, purified (HisTrap HP), modified with NHS-Fluo, ultrafiltration

koff [5]: 0.00402 s⁻¹
kon [5]: 286 M⁻¹ s⁻¹
B8: NB-3 modified with 20 times of NHS-Fluo (VHH)
VHH: B5 VHH
notes: as the VHH domain of Dm10; flexible (G4S)4 linker between the VHH domain and the His6 tag, written out from '(G4S)4'; A mixture of isomers with different numbers and places of fluorescein; also called NB-3-20; source: E. coli SHuffle T7, purified (HisTrap HP), modified with NHS-Fluo, ultrafiltration

Kd [5]: 3490 nM
koff [5]: 0.00297 s⁻¹
kon [5]: 849 M⁻¹ s⁻¹
B9: NB-3 modified with 1 time of NHS-Fluo (VHH)
VHH: B5 VHH
notes: as the VHH domain of Dm10; flexible (G4S)4 linker between the VHH domain and the His6 tag, written out from '(G4S)4'; A mixture of isomers with different numbers and places of fluorescein; also called NB-3-1; source: E. coli SHuffle T7, purified (HisTrap HP), modified with NHS-Fluo, ultrafiltration

binding result [7]: no binding (tested: 10 μg/mL)
Kd [4]: 297 nM
B19: NB-1 modified by a 20 fold amount of NHS-Fluo (VHH)
VHH: QVQLVESGGGLVQAGGSLRLSCAASGSTLDSYYIGWFRQAPGKEREGVSCISSSGNSIRYVDSVKDRFTISRDNGKNTAYLHINSLRPEDTAVYYCAASRRGRKPGLPCSLVRERYAYWGQGTQVTVSS
notes: VHH domain as in m2 (NB-1); flexible (G4S)4 linker between the VHH domain and the 6xHis-tag, written out from the printed formula; also called labeled NB-1; modified NB-1; source: E. coli SHuffle T7, purified (HisTrap HP), then modified with NHS-Fluo (2 h, 4 °C), ultrafiltration

Second part, the binder before the results:

B4: NB-3 (VHH)
VHH: B5 VHH
notes: VHH domain of NB-3; flexible (G4S)4 linker between the VHH domain and the His6 tag, written out from '(G4S)4'; VHH-(G4S)4-His6; Template of the homology model: PDB 5J56 (GMQE 0.93). 'Origin' = no treatment; '0' = negative control; also called NB-3-Origin; NB-3-0; source: E. coli SHuffle T7, purified (HisTrap HP)
koff [5]: 0.00165 s⁻¹
kon [5]: 1310 M⁻¹ s⁻¹
Kd [6]: 525 nM
koff [6]: 0.00154 s⁻¹
kon [6]: 2940 M⁻¹ s⁻¹

B6: NB-3 (anti-β2M VHH, unmodified), VHH-(G4S)4-His6 (VHH)
VHH: B5 VHH
notes: VHH domain of NB-3; flexible (G4S)4 linker between the VHH domain and the 6xHis-tag, written out from the printed formula; Homology model built on template PDB 5J56 (GMQE 0.93), a template only; also called NB-3-origin; NB-3-0; source: E. coli SHuffle T7, purified (HisTrap HP)
Kd [4]: 1260 nM
fold increase of KD against the sample without any treatment [4]: ~2 fold

B10: NB-2 (VHH)
VHH: QVQLVESGGGLVQHGGSLRLSCAASGSAFSTYSMTWHRQAPGKGREWVAGVDRSNSDTNYADSVKGRFTIYRDNAQNTVYLRMNSLKPEDTAVYYCSAERLDGSVRREYWGQGTQVTVSS
notes: VHH domain of NB-2; flexible (G4S)4 linker between the VHH domain and the His6 tag, written out from '(G4S)4'; VHH-(G4S)4-His6; Template of the homology model: PDB 5IML (GMQE 0.92). 'Origin' = no treatment; '0' = negative control; also called NB-2-Origin; NB-2-0; source: E. coli SHuffle T7, purified (HisTrap HP)
koff [5]: 0.00257 s⁻¹
kon [5]: 3540 M⁻¹ s⁻¹
Kd [6]: 356 nM
koff [6]: 0.00218 s⁻¹
kon [6]: 6120 M⁻¹ s⁻¹

B11: NB-2 modified with 20 times of NHS-Fluo (VHH)
VHH: B10 VHH
notes: as the VHH domain of Dm6; flexible (G4S)4 linker between the VHH domain and the His6 tag, written out from '(G4S)4'; A mixture of isomers with different numbers and places of fluorescein; also called NB-2-20; source: E. coli SHuffle T7, purified (HisTrap HP), modified with NHS-Fluo, ultrafiltration
koff [5]: 0.00328 s⁻¹
kon [5]: 77.4 M⁻¹ s⁻¹

B12: NB-2 (anti-β2M VHH, unmodified), VHH-(G4S)4-His6 (VHH)
VHH: B10 VHH
notes: VHH domain of NB-2; flexible (G4S)4 linker between the VHH domain and the 6xHis-tag, written out from the printed formula; Homology model built on template PDB 5IML (GMQE 0.92), a template only; also called NB-2-origin; NB-2-0; source: E. coli SHuffle T7, purified (HisTrap HP)
Kd [4]: 726 nM
fold increase of KD against the sample without any treatment [4]: ~2 fold

B13: NB-2 modified with 1 time of NHS-Fluo (VHH)
VHH: B10 VHH
notes: as the VHH domain of Dm6; flexible (G4S)4 linker between the VHH domain and the His6 tag, written out from '(G4S)4'; A mixture of isomers with different numbers and places of fluorescein; also called NB-2-1; source: E. coli SHuffle T7, purified (HisTrap HP), modified with NHS-Fluo, ultrafiltration
Kd [5]: 2530 nM
koff [5]: 0.00403 s⁻¹
kon [5]: 1600 M⁻¹ s⁻¹

B14: NB-2 modified with 5 times of NHS-Fluo (VHH)
VHH: B10 VHH
notes: as the VHH domain of Dm6; flexible (G4S)4 linker between the VHH domain and the His6 tag, written out from '(G4S)4'; A mixture of isomers with different numbers and places of fluorescein; also called NB-2-5; source: E. coli SHuffle T7, purified (HisTrap HP), modified with NHS-Fluo, ultrafiltration
Kd [5]: 9370 nM
koff [5]: 0.00554 s⁻¹
kon [5]: 591 M⁻¹ s⁻¹

B15: NB-2 modified by a 20 fold amount of NHS-Fluo (VHH)
VHH: B10 VHH
notes: VHH domain as in m4 (NB-2); flexible (G4S)4 linker between the VHH domain and the 6xHis-tag, written out from the printed formula; Heterogeneous product of random amino modification; also called modified NB-2; NB-2 20:1; source: E. coli SHuffle T7, purified (HisTrap HP), then modified with NHS-Fluo (2 h, 4 °C), ultrafiltration
Kd [4]: 42300 nM

B16: NB-1 (VHH)
VHH: B19 VHH
notes: VHH domain of NB-1; flexible (G4S)4 linker between the VHH domain and the His6 tag, written out from '(G4S)4'; VHH-(G4S)4-His6; Template of the homology model: PDB 4KDT (GMQE 0.99). 'Origin' = no treatment; '0' = negative control, all physical steps of the modification without NHS-Fluo; also called NB-1-Origin; NB-1-0; source: E. coli SHuffle T7, purified (HisTrap HP)
koff [5]: 0.00669 s⁻¹
kon [5]: 48500 M⁻¹ s⁻¹
Kd [6]: 61.8 nM
koff [6]: 0.00614 s⁻¹
kon [6]: 99300 M⁻¹ s⁻¹

B17: NB-1 modified with 20 times of NHS-Fluo (VHH)
VHH: B19 VHH
notes: as the VHH domain of Dm2; flexible (G4S)4 linker between the VHH domain and the His6 tag, written out from '(G4S)4'; also called NB-1-20; labeled NB-1; source: E. coli SHuffle T7, purified (HisTrap HP), modified with NHS-Fluo, ultrafiltration
koff [5]: 0.00863 s⁻¹
kon [5]: 29000 M⁻¹ s⁻¹

B18: NB-1 modified with 5 times of NHS-Fluo (VHH)
VHH: B19 VHH
notes: as the VHH domain of Dm2; flexible (G4S)4 linker between the VHH domain and the His6 tag, written out from '(G4S)4'; A mixture of isomers with different numbers and places of fluorescein; also called NB-1-5; source: E. coli SHuffle T7, purified (HisTrap HP), modified with NHS-Fluo, ultrafiltration
Kd [5]: 202 nM
koff [5]: 0.00843 s⁻¹
kon [5]: 41800 M⁻¹ s⁻¹

B20: NB-1 modified with 1 time of NHS-Fluo (VHH)
VHH: B19 VHH
notes: as the VHH domain of Dm2; flexible (G4S)4 linker between the VHH domain and the His6 tag, written out from '(G4S)4'; A mixture of isomers with different numbers and places of fluorescein, unmodified VHH among them; also called NB-1-1; source: E. coli SHuffle T7, purified (HisTrap HP), modified with NHS-Fluo, ultrafiltration
Kd [5]: 177 nM
koff [5]: 0.00761 s⁻¹
kon [5]: 43000 M⁻¹ s⁻¹

B21: NB-1 (anti-β2M VHH, unmodified), VHH-(G4S)4-His6 (VHH)
VHH: B19 VHH
notes: VHH domain of NB-1; flexible (G4S)4 linker between the VHH domain and the 6xHis-tag, written out from the printed formula; Homology model built on template PDB 4KDT (GMQE 0.99); also called NB-1-origin; NB-1-0; source: E. coli SHuffle T7, purified (HisTrap HP)
Kd [4]: 138 nM
Kd [8]: 60 nM

— PMC6680903 (Molecules, 2019)
